Two variants from IntAct's records for PubMed 11971877 can be followed below.

B1: Proline-serine-threonine phosphatase-interacting protein 1 (Homo sapiens), O43586 (parent)
chain: MMPQLQFKDAFWCRDFTAHTGYEVLLQRLLDGRKMCKDMEELLRQRAQAEERYGKELVQIARKAGGQTEINSLRASFDSLKQQMENVGSSHIQLALTLREELRSLEEFRERQKEQRKKYEAVMDRVQKSKLSLYKKAMESKKTYEQKCRDADDAEQAFERISANGHQKQVEKSQNKARQCKDSATEAERVYRQSIAQLEKVRAEWEQEHRTTCEAFQLQEFDRLTILRNALWVHSNQLSMQCVKDDELYEEVRLTLEGCSIDADIDSFIQAKSTGTEPPAPVPYQNYYDREVTPLTSSPGIQPSCGMIKRFSGLLHGSPKTTSLAASAASTETLTPTPERNEGVYTAIAVQEIQGNPASPAQEYRALYDYTAQNPDELDLSAGDILEVILEGEDGWWTVERNGQRGFVPGSYLEKL
partner: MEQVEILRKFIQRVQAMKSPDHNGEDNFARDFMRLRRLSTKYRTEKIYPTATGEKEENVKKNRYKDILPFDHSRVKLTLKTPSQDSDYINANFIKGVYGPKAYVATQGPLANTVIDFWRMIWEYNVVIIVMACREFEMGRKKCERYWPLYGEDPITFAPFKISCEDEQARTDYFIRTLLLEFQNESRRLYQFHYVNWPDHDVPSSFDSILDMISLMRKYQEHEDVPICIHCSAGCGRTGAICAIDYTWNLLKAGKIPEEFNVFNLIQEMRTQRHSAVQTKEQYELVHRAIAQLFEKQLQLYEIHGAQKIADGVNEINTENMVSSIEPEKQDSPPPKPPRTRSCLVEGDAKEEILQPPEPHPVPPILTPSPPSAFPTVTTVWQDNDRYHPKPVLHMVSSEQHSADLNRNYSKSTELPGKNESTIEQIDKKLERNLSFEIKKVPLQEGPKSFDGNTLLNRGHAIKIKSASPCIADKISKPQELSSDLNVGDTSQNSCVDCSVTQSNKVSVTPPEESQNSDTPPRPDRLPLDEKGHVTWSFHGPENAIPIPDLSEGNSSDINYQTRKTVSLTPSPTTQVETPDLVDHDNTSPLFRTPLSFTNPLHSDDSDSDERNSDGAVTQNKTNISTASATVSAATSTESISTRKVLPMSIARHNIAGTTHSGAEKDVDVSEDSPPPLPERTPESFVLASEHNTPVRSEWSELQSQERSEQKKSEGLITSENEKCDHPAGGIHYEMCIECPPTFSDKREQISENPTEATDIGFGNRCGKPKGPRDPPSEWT

Variants of B1 are the subject of the experiment. As to conditions: with ptn12_human PTPN12, Q05209.
Consider A230T, for which the “effect of a mutation on the interaction” value is listed as “decreasing interaction”.

Regarding E250Q, the “effect of a mutation on the interaction” value was “decreasing interaction”.
